# According to PMC11400632, “Substrate selectivity and inhibition of the human lysyl hydroxylase JMJD7” (Protein Science : A Publication of the Protein Society, 2024):
# Ends that are not written are not given here.
# Experiments:
# [1] = target: human Jumonji-C (JmjC) domain-containing protein 7 (JMJD7), residues 1-316 (human) (UniProt P0C870)
# [2] = target: human Jumonji-C (JmjC) domain-containing protein 7 (JMJD7), residues 1-316 (human) (UniProt P0C870); remark: listed apart in the source
# [3] = target: human Jumonji-C (JmjC) domain-containing protein 7 (JMJD7), residues 1-316 (human) (UniProt P0C870); remark: listed apart in the source
# human JMJD7 = target: T1, human JMJD7 (Homo sapiens, UniProt P0C870); assay: MALDI-TOF MS JMJD7 inhibition assay; format: biochemical; conditions: standard conditions
# T1 construct: human JMJD7 (residues 1–316) with an N‐terminal His6‐tag; His6 (N); made in house; host or cells: Escherichia coli Rosetta (DE3)
# Description: Due to signal overlaps between some DRG1 peptides and the reference DRG1‐Lys substrate, we synthesized a shorter reference substrate peptide (DRG1‐Lys, residues 17–40) for use in the MS‐based inhibition assays. Synthetic DRG1 peptides (residues 16–40, 10 or 50 μM) were preincubated with JMJD7 (200 nM) for 15 min, after which time the DRG1‐Lys substrate (residues 17–40, 5 μM), 2OG (10 μM), FAS […] and LAA […] were added, and the reaction were carried out for 25 min at room temperature. Most of the DRG1 peptides were not active as JMJD7 inhibitors at 10 μM (residual activity of JMJD7 >50%) (Figure S41a,b), with exceptions including the DRG1‐Orn, DRG1‐hGln and DRG1‐4pyrA peptides.
# Single point screening assays were as follows; initially, JMJD7 (200 nM) and substituted DRG1 peptide (10 or 50 μM) were incubated for 15 min, followed by the addition of a mixture of the DRG1‐Lys substrate (5 μM), 2OG (10 μM), FAS (10 μM) and LAA (100 μM) in a final volume of 50 μL in Tris‐buffer (pH 7.5) and incubated for additional 25 min at room temperature. […] Reactions were quenched by the addition of 10% (v/v) formic acid and mixed 1:1 with CHCCA matrix (1:1 v/v MeCN:H2O) then analyzed by MALDI‐TIMS‐TOF MS. JMJD7 activity was determined by calculating the integral of hydroxylated peptide and normalized to a control reaction in absence of potential inhibitory peptides. Every experiment was performed in duplicate (n = 2), error bars are reported as SE.
# Chain of human Jumonji-C (JmjC) domain-containing protein 7 (JMJD7), residues 1-316 (human) (P0C870 whole entry, the tested form may be a part): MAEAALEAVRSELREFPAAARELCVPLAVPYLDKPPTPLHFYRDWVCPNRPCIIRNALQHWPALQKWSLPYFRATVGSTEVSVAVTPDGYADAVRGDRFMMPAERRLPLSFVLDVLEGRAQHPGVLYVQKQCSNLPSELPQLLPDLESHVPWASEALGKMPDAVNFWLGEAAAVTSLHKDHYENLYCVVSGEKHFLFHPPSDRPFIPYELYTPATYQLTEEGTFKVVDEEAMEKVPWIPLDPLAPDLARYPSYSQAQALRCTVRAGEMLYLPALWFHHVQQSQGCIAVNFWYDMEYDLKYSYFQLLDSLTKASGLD
# T1 sequence (P0C870 whole entry, the tested form may be a part): as above
molecule,measurement,setting,value
"DRG1-Cys peptide (DRG1 residues 16-40, Cys in place of Lys22)","IC50 of inhibition of JMJD7-catalysed hydroxylation of the DRG1-Lys substrate, MALDI-TOF MS, 15 min preincubation",[1],1.25 µM
same,"IC50 of inhibition of JMJD7-catalysed hydroxylation of the DRG1-Lys substrate, MALDI-TOF MS, without preincubation",[1],16 µM
"DRG1-LysE peptide (DRG1 residues 16-40, (E)-dehydrolysine in place of Lys22)","Km of JMJD7-catalysed hydroxylation, steady-state kinetics by SPE-MS (0.1-5.0 μM peptide, 100 nM JMJD7)",[2],3.1 µM
"DRG1-Orn peptide (DRG1 residues 16-40, Orn in place of Lys22)","IC50 of inhibition of JMJD7-catalysed (200 nM) hydroxylation of the DRG1-Lys substrate (residues 17-40, 5 μM), MALDI-TOF MS, 15 min preincubation",[3],14 µM
"DRG1-Sec peptide (DRG1 residues 16-40, selenocysteine in place of Lys22)","IC50 of inhibition of JMJD7-catalysed hydroxylation of the DRG1-Lys substrate, MALDI-TOF MS, 15 min preincubation",[1],1.46 µM
same,"IC50 of inhibition of JMJD7-catalysed hydroxylation of the DRG1-Lys substrate, MALDI-TOF MS, without preincubation",[1],2.8 µM
"DRG1-hGln peptide (DRG1 residues 16-40, hGln in place of Lys22)","IC50 of inhibition of JMJD7-catalysed (200 nM) hydroxylation of the DRG1-Lys substrate (residues 17-40, 5 μM), MALDI-TOF MS, 15 min preincubation",[3],7.68 µM
DRG1‐Cys (residues 19–25): shorter peptide fragment DRG1-Cys (residues 19–25) (QKNCATA-NH2),inhibition of JMJD7 by the shorter peptide fragment,human JMJD7,No inhibition
ARTQKNKATAHHLGLLKARLAKLRR-NH2 [DRG1-Lys substrate peptide (DRG1 residues 16-40)],"Km of JMJD7-catalysed hydroxylation, steady-state kinetics by SPE-MS (0.1-5.0 μM peptide, 100 nM JMJD7)",[2],1.4 µM
